Source: paper PMC8956665, “Structural and molecular rationale for the diversification of resistance mediated by the Antibiotic_NAT family” (Communications Biology, 2022)

Molecular target: meta-AAC0038^H168A (not stated (soil metagenome))
Assay: crystal structure

meta-AAC0038^H168A (enzyme)
stoichiometry N: 2
